Our source for the Kd and response values is article PMC6297355.

In assay [1] the target is BAG3^WT (recombinant) (human) (UniProt O95817). Put plainly: ITC; NBD (100 μM) in the syringe titrated into 10 μM BAG3 in the cell; 25 mM HEPES, 5 mM MgCl2, 100 mM KCl, pH 7.5; 25 °C; one-site binding model. (In general: Isothermal titration calorimetry measures the heat released or taken up as one component is titrated into another.)
In assay [2] the target is BAG3^P209L (recombinant) (human) (UniProt O95817). The assay is described as above.
Sequence of BAG3^P209L (recombinant) (human) (O95817 whole entry P209L): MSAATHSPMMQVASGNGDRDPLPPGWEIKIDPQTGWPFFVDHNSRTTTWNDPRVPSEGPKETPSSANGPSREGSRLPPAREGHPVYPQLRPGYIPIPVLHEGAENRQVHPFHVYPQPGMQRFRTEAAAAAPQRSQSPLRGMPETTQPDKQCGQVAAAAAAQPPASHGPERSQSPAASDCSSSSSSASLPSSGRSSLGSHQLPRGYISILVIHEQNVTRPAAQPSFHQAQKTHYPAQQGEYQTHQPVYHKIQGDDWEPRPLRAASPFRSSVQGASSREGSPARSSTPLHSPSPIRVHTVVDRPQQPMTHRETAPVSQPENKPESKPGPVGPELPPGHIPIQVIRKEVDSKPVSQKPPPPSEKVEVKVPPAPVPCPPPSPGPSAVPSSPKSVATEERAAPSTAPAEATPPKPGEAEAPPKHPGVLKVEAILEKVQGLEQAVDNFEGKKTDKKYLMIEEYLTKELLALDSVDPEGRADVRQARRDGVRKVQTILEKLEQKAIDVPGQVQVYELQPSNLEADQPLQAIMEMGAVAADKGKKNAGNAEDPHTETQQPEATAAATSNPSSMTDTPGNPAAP
Assay [3] concerns the target 5-carboxyfluorescein (5-FAM) labeled LVEALY tracer. Put plainly: fluorescence polarisation (Δmp read-out, fluorescent peptide tracer). Particulars: 30 µM BAG3P209L; 30 µM BAG3WT; parent: est. 2; read off a plot. Background: Fluorescence polarisation rises when a labelled molecule tumbles more slowly, as on binding a larger partner.

Sequence of BAG3^WT (recombinant), O95817 P209L (O95817 whole entry P209L): as above
Sequence of BAG3^WT (recombinant) (human) (O95817 whole entry): as the sequence (O95817 whole entry P209L) above, with L209P counted along it

The Kd is the concentration at which binding is half-saturated. Consider “HSPA8^NBD (nucleotide-binding domain of HSPA8) (domain or fragment)”, for which the Kd in assay [1] and in assay [2] was 300 nM in each case.

Turning to BAG3^WT (recombinant), O95817 P209L, the response in assay [3] was 54 Δmp.
